# ± gives the uncertainty stated by the source.
# Assay: self-splicing fitness, log relative to wild type (ln ratio); higher = more splicing; Tetrahymena group I intron in knt gene, E. coli kanamycin selection, DiMSum; sequences stand for … in CUCUCU…GGAGGGAAAAGUUAUCAGGCAUGCACCUGGUAGCUAGUCUUUAAACCAAUAGAUUGCAUCGGUUUAAAAGGCAAGACCGUCAAAUUGCGGGAAAGGGGUCAACAGCCGUUCAGUACCAAGUCUCAGGGGAAACUUUGAGAUGGCCUUGCAAAGGGUAUGGUAAUAAGCUGACGGACAUGGUCCUAACCACGCAGCCAAGUCCUAAGUCAACAGAUCUUCUGUUGAUAUGGAUGCAGUUCACAGACUAAAUGUCGGUCGGGGAAGAUGUAUUCUUCUCAUAAGAUAUAGUCGGACCUCUCCUUAAUGGGAGCUAGCGGAUGAAGUGAUGCAACACUGGAGCCGCUGGGAACUAAUUUGUAUGCGAAAGUAUAUUGAUUAGUUUUGGAGUACUCGUGGUCG
# In short: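 Pooled colonies went to amplicon sequencing on an Illumina HiSeq 2500 after six replicate transformations. The plates were LB agar with 100 μg/mL carbenicillin, 50 μM IPTG and 0.2% rhamnose, with or without 25 μg/mL kanamycin, incubated overnight at 37°C or 30°C. The E. coli BL21(DE3) library had all eight P1ex-region intron nucleotides randomised, the intron placed in the knt kanamycin-resistance gene on pET-22b(+). DiMSum fitness is the error-weighted combination of replicate fold changes, kanamycin against none, normalised to wild type.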
Sequence,self-splicing fitness (ln) (30 °C),self-splicing fitness (ln) (37 °C)
GUCUAGCAAUAUUACGGUCA,-0.592 ± 0.11,-0.44 ± 0.12
CCAUAGCAAUAUUACGACAU,-3.882 ± 0.026,-2.93 ± 0.04
AACAAGCAAUAUUACGGAUG,-2.4 ± 0.08,-2.37 ± 0.096
UCAGAGCAAUAUUACGGUGG,-3.06 ± 0.089,-1.32 ± 0.084
UAAUAGCAAUAUUACGCCGU,-2.83 ± 0.38,-1.97 ± 0.43
UGACAGCAAUAUUACGGUCG,-3.56 ± 0.26,-1.58 ± 0.21
CGCCAGCAAUAUUACGCCAA,-1.59 ± 0.23,-2.02 ± 0.46
AUUUAGCAAUAUUACGCUAU,-3.64 ± 0.3,-0.748 ± 0.23
CUAGAGCAAUAUUACGGGCG,0.0237 ± 0.11,0.638 ± 0.14
AUGUAGCAAUAUUACGUCGC,–,-2.35 ± 0.46
UUAGAGCAAUAUUACGAAAA,-1.66 ± 0.13,-0.776 ± 0.15
GAUCAGCAAUAUUACGAGUU,-1.26 ± 0.094,-0.882 ± 0.12
AACGAGCAAUAUUACGUUAA,-3.45 ± 0.36,-2.2 ± 0.24
CGGAAGCAAUAUUACGAUUG,-0.86 ± 0.073,-0.25 ± 0.095
CUCGAGCAAUAUUACGAGUA,-2.77 ± 0.24,-2.75 ± 0.31
AACAAGCAAUAUUACGAUCC,-1.13 ± 0.077,0.0585 ± 0.1
CUUUAGCAAUAUUACGCUAG,-3.45 ± 0.31,-2.11 ± 0.27
UCAUAGCAAUAUUACGAAUU,-3.73 ± 0.32,-2.48 ± 0.24
UCGUAGCAAUAUUACGACCU,-2.89 ± 0.22,-0.916 ± 0.15
CAAUAGCAAUAUUACGUGGU,-3.82 ± 0.17,-2.53 ± 0.18
GAGAAGCAAUAUUACGUAGG,-3.2 ± 0.23,-0.924 ± 0.15
CCGCAGCAAUAUUACGUAAC,-3.86 ± 0.3,-2.7 ± 0.29
UGAUAGCAAUAUUACGUCCG,-0.219 ± 0.11,-0.0349 ± 0.13
AUGUAGCAAUAUUACGAUGG,-3.4 ± 0.25,-2.26 ± 0.26
GGGCAGCAAUAUUACGAACA,-0.951 ± 0.17,-0.607 ± 0.18
GGAAAGCAAUAUUACGCGGU,-3.32 ± 0.13,-3.21 ± 0.2

Sequence,self-splicing fitness (ln) (30 °C),self-splicing fitness (ln) (37 °C)
AUACAGCAAUAUUACGGUGA,-0.847 ± 0.063,0.283 ± 0.077
CGUAAGCAAUAUUACGCUCU,-0.698 ± 0.17,-1.35 ± 0.2
UCUAAGCAAUAUUACGCGGG,-3.14 ± 0.2,-1.41 ± 0.18
GCAGAGCAAUAUUACGUGCU,-3.24 ± 0.15,-2.73 ± 0.22
GCCAAGCAAUAUUACGUACC,-1.28 ± 0.1,-0.683 ± 0.15
UAGGAGCAAUAUUACGCUUC,-2.64 ± 0.35,–
UAGAAGCAAUAUUACGGCUU,-3.59 ± 0.48,-1.67 ± 0.23
ACCAAGCAAUAUUACGGACC,-0.368 ± 0.098,-0.214 ± 0.12
CACGAGCAAUAUUACGAUUU,-3.18 ± 0.18,-1.99 ± 0.13
GGCUAGCAAUAUUACGUUUG,-2.86 ± 0.11,-1.45 ± 0.12
GGCAAGCAAUAUUACGGACU,0.0032 ± 0.071,0.777 ± 0.096
CAUAAGCAAUAUUACGAUAG,0.359 ± 0.072,0.232 ± 0.084
CCAGAGCAAUAUUACGUCGG,-4.42 ± 0.17,-2.2 ± 0.13
UCCCAGCAAUAUUACGGGUG,-1.4 ± 0.06,-0.507 ± 0.075
GCGCAGCAAUAUUACGAGGC,-2.7 ± 0.35,-1.29 ± 0.24
ACAAAGCAAUAUUACGAUCC,-1.55 ± 0.071,0.389 ± 0.1
CCGGAGCAAUAUUACGCGAU,-3.82 ± 0.27,-2.62 ± 0.33
UGAAAGCAAUAUUACGCACA,-0.903 ± 0.15,0.683 ± 0.15
GGAGAGCAAUAUUACGACUG,–,-1.15 ± 0.27
GAGAAGCAAUAUUACGAGCG,-1.15 ± 0.16,-0.106 ± 0.18
UUGGAGCAAUAUUACGGGGG,-2.12 ± 0.39,-2.14 ± 0.5
AGCAAGCAAUAUUACGAUCU,-0.189 ± 0.052,0.631 ± 0.077
UACCAGCAAUAUUACGGGUG,-3.23 ± 0.097,-1.78 ± 0.078
AACUAGCAAUAUUACGAGCC,-0.792 ± 0.47,-1.17 ± 0.34
GCGAAGCAAUAUUACGAUAG,-2.35 ± 0.14,-1.51 ± 0.17
AUUGAGCAAUAUUACGGGAU,-3.29 ± 0.23,-1.96 ± 0.15

Sequence,self-splicing fitness (ln) (30 °C),self-splicing fitness (ln) (37 °C)
UCAAAGCAAUAUUACGUUCA,-0.821 ± 0.099,-0.534 ± 0.11
CCUUAGCAAUAUUACGCAUU,-4.02 ± 0.46,–
ACUGAGCAAUAUUACGUAUU,-3.29 ± 0.12,-1.48 ± 0.097
UAUUAGCAAUAUUACGACCU,-1.41 ± 0.16,-0.551 ± 0.15
UCACAGCAAUAUUACGAUCG,-0.61 ± 0.08,-0.076 ± 0.11
CGUCAGCAAUAUUACGCUUU,-3.76 ± 0.27,-1.66 ± 0.17
CGUGAGCAAUAUUACGGGUU,-3.99 ± 0.46,-2.65 ± 0.29
CGGAAGCAAUAUUACGUGAC,-1.6 ± 0.16,-2.12 ± 0.35
CGAUAGCAAUAUUACGGUAC,-3.93 ± 0.24,-2.89 ± 0.25
GAUCAGCAAUAUUACGGCUG,-3.29 ± 0.19,-1.12 ± 0.16
GGGCAGCAAUAUUACGCAAA,-1.39 ± 0.099,-0.884 ± 0.11
CCUGAGCAAUAUUACGACGA,-2.99 ± 0.24,-1.61 ± 0.17
CCGUAGCAAUAUUACGGCAC,-3.83 ± 0.42,-2.14 ± 0.26
AGCUAGCAAUAUUACGCUUC,-3.25 ± 0.3,-2.65 ± 0.28
CACCAGCAAUAUUACGUUAC,-4.48 ± 0.26,-2.45 ± 0.18
CUUCAGCAAUAUUACGUGCU,-3.07 ± 0.12,-2.6 ± 0.13
CCGCAGCAAUAUUACGUGUC,-3.88 ± 0.2,-2.34 ± 0.14
GUCUAGCAAUAUUACGGUCC,-2.44 ± 0.15,-1.18 ± 0.13
GACUAGCAAUAUUACGACAC,-0.0525 ± 0.075,-0.0737 ± 0.093
UUACAGCAAUAUUACGGGCU,-3.86 ± 0.24,-2.32 ± 0.18
UGCUAGCAAUAUUACGAAUU,-4.43 ± 0.41,-1.98 ± 0.17
CCAUAGCAAUAUUACGAUAU,-3.76 ± 0.2,-2.97 ± 0.19
AGUAAGCAAUAUUACGGCGA,-0.491 ± 0.12,0.468 ± 0.17
GGGAAGCAAUAUUACGCGCU,-2.66 ± 0.28,-0.954 ± 0.27

# From the supplement of paper PMC7877785
